Results from the supplement of paper PMC7125110.
± gives the standard error. Fewer inactive variants are shown than the library holds.

B1: glmS ribozyme (parent)
chain: AUAAAAGCGCCAGAACUACAGAAAUGUAGUUGACGAGGAGGAGGUUUAUCGAAUUUUCGGCGGAUGCCUCCAAA

Legend:
Settings in all cases: with glucosamine-6-phosphate
glucosamine-6-phosphate [1] = variants of: B1; experiment: self-cleavage kobs at 160 uM GlcN6P; higher = faster cleavage; RNA array
Summary of the method: (§1)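 Using a hybridised Cy3 probe at 37 °C, barcoded ribozyme variants transcribed in situ by E. coli RNA polymerase on sequenced MiSeq chips were monitored across tiles imaged over ~14 h. The flow contained glucosamine-6-phosphate from 40 μM to 10 mM in HEPES/KCl/Mg(OAc)2 buffer. Signals were normalised to baseline and to non-cleaving reference variants before per-tile medians were fit to one- or two-exponential decays to yield kobs. Weighted Michaelis–Menten fits across concentrations gave kcat and KM.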

glucosamine-6-phosphate [2] = variants of: B1; experiment: self-cleavage kobs at 640 uM GlcN6P; higher = faster cleavage; RNA array
Summary of the method: as §1

glucosamine-6-phosphate [3] = variants of: B1; experiment: self-cleavage kobs at 2500 uM GlcN6P; higher = faster cleavage; RNA array
Summary of the method: as §1

glucosamine-6-phosphate [4] = variants of: B1; experiment: self-cleavage kobs at 10000 uM GlcN6P; higher = faster cleavage; RNA array
Summary of the method: as §1

glucosamine-6-phosphate [5] = variants of: B1; experiment: self-cleavage kobs at 40 uM GlcN6P; higher = faster cleavage; RNA array
Summary of the method: as §1

Variant | self-cleavage kobs at 160 uM GlcN6P (glucosamine-6-phosphate [1]) | self-cleavage kobs at 640 uM GlcN6P (glucosamine-6-phosphate [2]) | self-cleavage kobs at 2500 uM GlcN6P (glucosamine-6-phosphate [3]) | self-cleavage kobs at 10000 uM GlcN6P (glucosamine-6-phosphate [4]) | self-cleavage kobs at 40 uM GlcN6P (glucosamine-6-phosphate [5])
A6C A15U C71G | < 1e-05 s⁻¹ |  |  |  | 
A6C C16U G40A U57C U69A | < 1e-05 s⁻¹ |  |  |  | 
G7C A12G A33U G51U | < 1e-05 s⁻¹ |  |  |  | 
A6U G38U U47G | < 1e-05 s⁻¹ |  |  |  | 
A6U U30G G44U A53C | < 1e-05 s⁻¹ | < 1e-05 s⁻¹ | < 1e-05 s⁻¹ |  | 
A6U G44U C61U | < 1e-05 s⁻¹ | < 1e-05 s⁻¹ | < 1e-05 s⁻¹ |  | 
A6G U46C U57G | < 1e-05 s⁻¹ |  |  |  | 
C8A C16U U31C G38A U56C | < 1e-05 s⁻¹ |  |  | < 1e-05 s⁻¹ | 
A6G G44A C71A | < 1e-05 s⁻¹ | < 1e-05 s⁻¹ | < 1e-05 s⁻¹ | < 1e-05 s⁻¹ | 
A6G U47C U55C C71U | < 1e-05 s⁻¹ | < 1e-05 s⁻¹ | < 1e-05 s⁻¹ |  | 
C8G U30G G37A G66A U69G | 0.000132 ± 4.9e-05 s⁻¹ | 0.000166 ± 6e-05 s⁻¹ |  |  | 
C8A U31C A48U G51A G59C | < 1e-05 s⁻¹ | < 1e-05 s⁻¹ | < 1e-05 s⁻¹ |  | 
C68U U69G C71A |  |  |  |  | < 1e-05 s⁻¹
G63U A64C C67G C70U |  | < 1e-05 s⁻¹ |  | < 1e-05 s⁻¹ | < 1e-05 s⁻¹
A6U G9A U49C | < 1e-05 s⁻¹ |  |  |  | 
A6G A14U A48G G63U | < 1e-05 s⁻¹ | < 1e-05 s⁻¹ | < 1e-05 s⁻¹ |  | 
A6U G40A A52C | < 1e-05 s⁻¹ | < 1e-05 s⁻¹ | < 1e-05 s⁻¹ |  | 
A6G G38A G43U A48U A52C U69G | < 1e-05 s⁻¹ |  | < 1e-05 s⁻¹ |  | 
C8G C71G | < 1e-05 s⁻¹ | < 1e-05 s⁻¹ | < 1e-05 s⁻¹ | < 1e-05 s⁻¹ | 
C8G U47G U54A G63U | < 1e-05 s⁻¹ | < 1e-05 s⁻¹ | < 1e-05 s⁻¹ |  | 
C8A A12U C67U | < 1e-05 s⁻¹ | < 1e-05 s⁻¹ | < 1e-05 s⁻¹ |  | 
A6G C11U A15U C50U | < 1e-05 s⁻¹ |  |  | < 1e-05 s⁻¹ | 
C8G C58A C67A | < 1e-05 s⁻¹ | < 1e-05 s⁻¹ | < 1e-05 s⁻¹ |  | 
G7U C8G G51C | < 1e-05 s⁻¹ | < 1e-05 s⁻¹ | < 1e-05 s⁻¹ |  | 
G9C G37A U46A A52U G60A C61A | < 1e-05 s⁻¹ |  | < 1e-05 s⁻¹ |  | 
G7A G41U | < 1e-05 s⁻¹ | < 1e-05 s⁻¹ |  | < 1e-05 s⁻¹ | 

Variant | self-cleavage kobs at 160 uM GlcN6P (glucosamine-6-phosphate [1]) | self-cleavage kobs at 640 uM GlcN6P (glucosamine-6-phosphate [2]) | self-cleavage kobs at 2500 uM GlcN6P (glucosamine-6-phosphate [3]) | self-cleavage kobs at 10000 uM GlcN6P (glucosamine-6-phosphate [4]) | self-cleavage kobs at 40 uM GlcN6P (glucosamine-6-phosphate [5])
G7U C34A U65G | < 1e-05 s⁻¹ | < 1e-05 s⁻¹ |  |  | 
G7U C50A | < 1e-05 s⁻¹ | < 1e-05 s⁻¹ |  | < 1e-05 s⁻¹ | 
G9C C50G | 0.00045 ± 0.00018 s⁻¹ |  |  |  | 
A6G C50G U54C | 5.66e-05 ± 2e-05 s⁻¹ | 5.17e-05 ± 2.4e-05 s⁻¹ |  |  | 
A6G A12U A36C G43C | < 1e-05 s⁻¹ | < 1e-05 s⁻¹ | < 1e-05 s⁻¹ |  | 
C8A G13A G37U C67U C68U | 8.8e-05 ± 3.5e-05 s⁻¹ | 0.000297 ± 8.5e-05 s⁻¹ |  |  | 
A64G C68G C71A | < 1e-05 s⁻¹ | < 1e-05 s⁻¹ |  | < 1e-05 s⁻¹ | < 1e-05 s⁻¹
C8A A33C G35U G63U | < 1e-05 s⁻¹ | < 1e-05 s⁻¹ | < 1e-05 s⁻¹ |  | 
G7C G13U A36C C68A | < 1e-05 s⁻¹ |  | < 1e-05 s⁻¹ |  | 
C8A U57A | < 1e-05 s⁻¹ | < 1e-05 s⁻¹ | < 1e-05 s⁻¹ | < 1e-05 s⁻¹ | 
G9A U30G G59C | < 1e-05 s⁻¹ | < 1e-05 s⁻¹ |  |  | 
A6U A14U G38U C50A G51U A53C G63A | < 1e-05 s⁻¹ |  |  |  | 
G7U G32U A33C U47A G59A | < 1e-05 s⁻¹ |  |  |  | 
G7C C16G | < 1e-05 s⁻¹ | < 1e-05 s⁻¹ |  | < 1e-05 s⁻¹ | 
A6U U45A A53C | < 1e-05 s⁻¹ | 4.01e-05 ± 1.9e-05 s⁻¹ | 4.74e-05 ± 2.2e-05 s⁻¹ |  | 
G7U A53C | < 1e-05 s⁻¹ | < 1e-05 s⁻¹ |  | < 1e-05 s⁻¹ | 
G7U A12U C67U | < 1e-05 s⁻¹ | < 1e-05 s⁻¹ |  |  | 
C67G C70G |  |  |  | < 1e-05 s⁻¹ | < 1e-05 s⁻¹
C8G A52G | < 1e-05 s⁻¹ | < 1e-05 s⁻¹ | < 1e-05 s⁻¹ | < 1e-05 s⁻¹ | 
G63U G66U |  | < 1e-05 s⁻¹ | < 1e-05 s⁻¹ | < 1e-05 s⁻¹ | < 1e-05 s⁻¹
G63U G66C | < 1e-05 s⁻¹ |  | < 1e-05 s⁻¹ | < 1e-05 s⁻¹ | < 1e-05 s⁻¹
A6C G7C A33C C50G A52C U65C | < 1e-05 s⁻¹ |  |  |  | 
G9A A12U U31A A52G G59C | < 1e-05 s⁻¹ |  | < 1e-05 s⁻¹ |  | 
C8G G40U C61A C71U | < 1e-05 s⁻¹ |  |  |  | 
G9A C11A G35A U47C C68A | < 1e-05 s⁻¹ |  | < 1e-05 s⁻¹ |  | 
G7U U47A A52C A53U U55G C61U | < 1e-05 s⁻¹ | < 1e-05 s⁻¹ | < 1e-05 s⁻¹ |  | 
